Values quoted from earlier work in publication PMC4746476.

Target: CCL21 (Homo sapiens) (UniProt O00585)
Sequence of UniProt O00585 (O00585 24-134): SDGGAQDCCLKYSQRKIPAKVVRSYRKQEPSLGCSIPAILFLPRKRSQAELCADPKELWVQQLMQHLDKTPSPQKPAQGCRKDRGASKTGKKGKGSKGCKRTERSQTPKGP

## CCR7 (from UniProt P32248)
  Kd: 10 nM
